One data set concerns PBMC. The data set is described as follows: PBMC cytokine release. Format: cell-based.
The target in the next data set is recombinant human ICAM-1 (Homo sapiens, UniProt P05362). The data set is described as follows: ELISA on recombinant human ICAM-1, ICAM-2, ICAM-3. The format is binding. To be noted: vs ICAM-2, ICAM-3. The method, then:
Antibody-specific bands were excised and subjected to tryptic digestion and analyzed by MALDI-TOF. The single band precipitated by BI-505 was identified as ICAM-1. The established identity of ICAM-1 was confirmed by blocking studies by up to 50-fold molar excess soluble recombinant ICAM-1 or VCAM. The MFI of BI-505 to PC-3 cells was determined by flow cytometry. Dashed line represents the negative control antibody and gray solid histogram represents the MFI of BI-505 with no preblocking. BI-505 was preblocked by recombinant VCAM or ICAM-1. […] Anti-ICAM-2 and α-ICAM-3 antibodies were used as positive controls to detect ICAM-2 and ICAM-3 respectively.

The test system of the next data set is Daudi lymphoma cells. Kind of data set: Programmed cell death (PCD) assay, Daudi. Format: cell-based, human. The method, then:
Target cells were seeded in 96-well culture plates at a density of 2×10^6 cells/mL culture medium. […] The cells were then incubated for 16 hours at 37° C. in a humidified atmosphere of 5% CO2. The cells were harvested and stained for Annexin V-488/Propidium Iodide (Invitrogen, Sweden) and analysed using flow cytometer (FACS Calibur, BD Bioscience).

Data set [1] relates to B lymphoma cell line (CL-01). The data set is described as follows: ADCC of tumor cells with human NK effector cells. The format is cell-based. To be noted: human Natural Killer effector cells. An excerpt: Buffy coats from human donors (ordered through Blodcentralen, Lund) were used to isolate peripheral blood mononuclear cells (PBMCs), and subsequently NK cells. Briefly, peripheral blood components were separated using Ficoll Paque PLUS (Amersham Biosciences, Sweden) in LeucoSep tubes (Greiner Bio-One). The PBMC fraction was removed and thoroughly washed in ice-cold DPBS (Invitrogen), before magnetic labeling and separation of the NK cell population using positive or negative NK cell isolation kits and MACS LS columns (Miltenyi Biotec). The purity of the obtained NK cell fractions was analyzed using flow cytometry, after staining with α-CD56 antibodies (BD Biosciences). Target cells were harvested, and incubated in medium with or without the respective antibodies (2 μg/mL) for 60 min on ice. Cells were thereafter washed and resuspended in cold medium before dispension into FACS tubes. Subsequently, isolated NK cells were diluted in ADCC medium and dispensed together with the respective antibody-coated target cells at varying effector/target cell ratios (40:1, 20:1, 5:1 and 1:1). All experiments were performed in triplicates. After completed incubation ToPo-Pro-3 dye and counting beads (Invitrogen) were added and cells were analyzed for membrane permeabilization using flow cytometry.

The next data set deals with OPM-2 myeloma cells. Kind of data set: Subcutaneous myeloma xenograft, OPM-2 (ICAM-1 negative). Format: in vivo, scid mice. To be noted: 2 mg/kg twice weekly i.p.; ICAM-1 negative cell line. The method, then: (§1) Antibody treatment with 2 mg/kg BI-505 or control IgG1 was started at Day 1 and was continued on a twice-weekly intraperitoneal dosing regimen. Mice were sacrificed when tumor sizes reached the ethical limit.

A further data set deals with RPMI-8226 myeloma cells. The data set is described as follows: Subcutaneous myeloma xenograft, RPMI-8226. Format: in vivo, scid mice. To be noted: 2 mg/kg twice weekly i.p.; vs control IgG1. How it is done:
as §1

In a further data set the target is T1, human FcγRIIIa (Homo sapiens, UniProt P08637).
T1 construct: made in house; host or cells: HEK293E (transient)
The data set is described as follows: Biacore binding of BI-505 isotype variants to human FcγRIIIa. How it is done:
His-tagged human FcγRIIIa or mouse FcγRIV were expressed transient in adherent HEK293E cells, purified using Ni-NTA chromatography and characterized using SDS-PAGE and/or Biacore. Surface plasmon resonance (SPR) measurements were perfomed using a Biacore 3000 instrument. Goat α-human-F(ab)′2 F(ab)′2 fragment (Jackson laboratories) was immobilised with a CM-5 chip using a standard amine coupling protocol. IgG1 B11, Iga4 B11, or 297Q B11 were diluted to 15 and 60 μg/mL respectively and added to the surface at […] for 3 min. His tagged human FcγRIIIa or mouse FcγRIV were pre-incubated with an α-HIS antibody (R&D Systems) at a 2:1 molar ratio before addition to the chip surface, […], 1 min. After each cycle the surface was regenerated twice with glycine buffer pH 1.7.

A further data set has as its system ARH-77 tumors. The data set is described as follows: Subcutaneous scid/ARH-77 xenograft, established (palpable tumor) model. To be noted: IgG B11 even at 0.2 mg/kg (100-fold lower dose than rituximab).
Data set [2] has as its system F4/80 positive host effector cells in ARH-77 xenograft tissue. To be noted: compared to control IgG, untreated and rituximab treated mice.
Method: (FIG. 7A) ARH-77 cells were injected subcutaneously into the left flank of SCID mice (n=8 per group). […] Statistical significance was calculated relative to control antibody treatment using Kruskal-Wallis Test (Nonparametric ANOVA) with Dunn's Multiple Comparisons Test. Statistical significance was considered for *p<0.05, **p<0.01, and ***p<0.001.

“Also recorded” adds a separate entry of the source. Where two headings read alike, the source gives them in different places.

T1 sequence (P08637 17-254): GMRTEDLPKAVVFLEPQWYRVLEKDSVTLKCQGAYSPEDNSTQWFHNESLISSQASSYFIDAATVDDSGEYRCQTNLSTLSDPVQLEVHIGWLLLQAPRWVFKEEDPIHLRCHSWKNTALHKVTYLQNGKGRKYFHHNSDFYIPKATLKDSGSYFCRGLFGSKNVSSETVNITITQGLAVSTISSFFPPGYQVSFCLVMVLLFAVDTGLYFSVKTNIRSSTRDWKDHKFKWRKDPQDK
Chain of recombinant human ICAM-1 (P05362 28-532): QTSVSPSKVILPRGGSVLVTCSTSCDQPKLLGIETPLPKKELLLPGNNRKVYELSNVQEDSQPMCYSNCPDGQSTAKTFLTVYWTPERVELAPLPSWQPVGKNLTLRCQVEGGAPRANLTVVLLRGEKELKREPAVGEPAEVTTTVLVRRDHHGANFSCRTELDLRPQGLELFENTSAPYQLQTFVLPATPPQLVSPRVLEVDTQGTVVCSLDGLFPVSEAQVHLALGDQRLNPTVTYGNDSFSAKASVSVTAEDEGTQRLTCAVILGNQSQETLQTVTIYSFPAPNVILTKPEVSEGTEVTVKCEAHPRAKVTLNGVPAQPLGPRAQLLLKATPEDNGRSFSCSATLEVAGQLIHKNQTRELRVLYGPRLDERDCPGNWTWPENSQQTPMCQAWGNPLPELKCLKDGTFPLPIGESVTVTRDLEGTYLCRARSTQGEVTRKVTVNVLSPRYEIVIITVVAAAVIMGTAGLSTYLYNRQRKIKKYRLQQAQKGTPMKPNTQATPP
Method for ARH-77 tumors: Mice were anaesthetized with a mixture of sevofluran and oxygen prior to myeloma cell inoculation and 1-5×10^6 myeloma cells were then subcutaneously injected in a volume of 100 μl into the left flank. Treatment with antibodies by intraperitonial (i.p.) injections was started either the day after cell inoculation (prophylactic model) or when tumors reached a size of approximately 100 mm^3 (established model). Antibodies were administrated in PBS in a total volume of 200 μL. Treatment with PBS or isotype control was used as control. Tumors were measured with a digital calliper and the tumor volumes were calculated according to formula: width^2×length×0.52. Animals were sacrificed when the tumor sizes reached the ethical limit of 1.5 cm. Surviving mice were sacrificed after a maximum of 5 months. Blood samples collected from the vena cava were centrifuged at 2500 g for 15 min to obtain serum and the samples were stored at −20° C. Tumors were removed for immunohistochemistry, snap frozen and were kept at −85° C.

B1: IgG B11: fully human ICAM-1 antibody isolated from the n-CoDeR library; VH/VL sequences in FIG. 15 (SEQ ID NOs 8, 10) (antibody, V domains shown)
VH: EVQLLESGGGLVQPGGSLRLSCAASGFTFSNAWMSWVRQAPGKGLEWVAFIWYDGSNKYYADSVKGRFTISRDNSKNTLYLQMNSLRAEDTAVYYCARYSGWYFDYWGQGTLVTVSS
VL: QSVLTQPPSASGTPGQRVTISCTGSSSNIGAGYDVHWYQQLPGTAPKLLIYDNNNRPSGVPDRFSGSKSGTSASLAISGLRSEDEADYYCQSYDSSLSAWLFGGGTKLTVLG
modifications: B11 VH region; B11 VL region
As for B1, in the data set on PBMC (added in solution, resting or lipopolysaccharide pre-stimulated PBMCs), the cytokine release entry was “did not induce or enhance cytokine release”. The PBMC cytokine release result in the data set on PBMC (immobilised by either protocol, or in solution with or without cross-linking reagent) is on record as “induce PBMC cytokine release”. Besides, the “specificity for ICAM-1” value with recombinant human ICAM-1 is reported as “high specificity”. For the same molecule, the PCD induction entry in the data set on Daudi lymphoma cells (antibody immobilised by either of two coating protocols) is on record as “induced programmed cell death”; with Daudi lymphoma cells (titrated antibody with cross-linking, 16 hours) it was “dose dependent PCD-induction”. The “ADCC of target tumor cells” value in [1] is recorded as “mediated ADCC”. The tumor growth entry in the data set with OPM-2 myeloma cells is recorded as “no effect on tumor growth; also recorded: did not affect tumor growth”; with ARH-77 tumors it was “significantly prevented tumor growth”. Besides, in the data set on RPMI-8226 myeloma cells, the “reduction of myeloma tumor growth” value was determined as 96%. Also, the “binding to human FcγRIIIa” value with human FcγRIIIa was “bound to human FcγRIIIa”. Also, the animal survival result in the data set on ARH-77 tumors is given as “prolonged animal survival”. The figures for the “influx of F4/80+ host effector cells (macrophage infiltration) in tumor tissue” value in data set [2] and in [2] (listed as BI-505) were “massive influx” and “significantly increased”, respectively.

Values taken from patent US20160280788A1, “USE OF ANTIBODIES AGAINST ICAM-1 IN THE TREATMENT OF PATIENTS WITH RELAPSED CANCER” (BioInvent International AB, priority 2010, published 2016).
